System: T1, Nc1ncnc2c1ncn2[C@@H]1O[C@H](COP(=O)(O)OP(=O)(O)OP(=O)(O)O)[C@@H](O)[C@H]1O
T1 construct: pentameric holocomplex overexpressed in budding yeast from galactose-inducible promoters; His12 tag on Brn1, triple StrepII tag on Smc4; gel-filtered monomeric complexes; with Condensin complex subunit 2; Condensin complex subunit 1; Condensin complex subunit 3
Test: single-molecule magnetic tweezers, DNA compaction rate vs ATP, Michaelis-Menten fit
Format: biochemical, Saccharomyces cerevisiae
Conditions: 8.6 nM condensin, tethered 20-kb DNA under constant force, 10 mM HEPES-NaOH pH 7.9, 125 mM NaCl, 5 mM MgCl2, 1 mM DTT, error is 95% confidence interval, read-out is compaction rate, not ATP turnover

“S. cerevisiae condensin holocomplex (Smc2–Smc4–Brn1–Ycs4–Ycg1) (Saccharomyces cerevisiae S288C)” was tested, and the Km was 1400 ± 1500 µM.
